Where a chain is given by its changes, count along the chain named.

Common to all, as to assay: flow cytometry, alanine-scan library in HEK-293T
On the technique in general: A flow cytometer gives signals particle by particle.

One test addresses T1, hsGLUT4 P224A (human, UniProt P14672 1-509).
T1 sequence: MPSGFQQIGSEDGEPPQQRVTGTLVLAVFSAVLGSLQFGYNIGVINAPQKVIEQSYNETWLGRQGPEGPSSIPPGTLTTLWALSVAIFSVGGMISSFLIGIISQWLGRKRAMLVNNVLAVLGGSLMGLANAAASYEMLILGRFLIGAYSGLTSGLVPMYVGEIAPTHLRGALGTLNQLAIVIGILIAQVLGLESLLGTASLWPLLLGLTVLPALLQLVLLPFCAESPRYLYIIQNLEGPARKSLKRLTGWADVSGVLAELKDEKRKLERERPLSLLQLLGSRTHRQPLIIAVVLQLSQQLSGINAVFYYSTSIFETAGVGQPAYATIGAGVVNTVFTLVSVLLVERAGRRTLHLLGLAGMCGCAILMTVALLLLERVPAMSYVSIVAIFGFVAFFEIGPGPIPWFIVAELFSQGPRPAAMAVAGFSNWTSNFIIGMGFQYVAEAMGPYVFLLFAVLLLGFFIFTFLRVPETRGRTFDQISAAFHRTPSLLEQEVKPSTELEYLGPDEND
In short, it runs like this:
(§1)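 HEK-293T cells expressing individual GLUT4 alanine mutants were stained 48 h post-transfection with anti-GLUT4 scFv MAbs (2 μg/ml), then biotinylated secondary and streptavidin-PerCP, and read by high-throughput flow cytometry. Where used, cytochalasin B (10 uM final) was given for 30 min before and during primary antibody staining.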

For the next test, the target named is T2, hsGLUT4 M112A (human, UniProt P14672 1-509).
T2 sequence: T1 sequence with M112A, A224P
In short, it runs like this: as §1

The next test concerns the target T3, hsGLUT4 F405A (human, UniProt P14672 1-509).
T3 sequence: T1 sequence with A224P, F405A
The method, boiled down: as §1

For another test, the target named is T4, hsGLUT4 S310A (human, UniProt P14672 1-509).
T4 sequence: T1 sequence with A224P, S310A
In short, it runs like this:
as §1

For the molecule 1F8 (antibody), the % of binding to wild type GLUT4 was determined as 103% with hsGLUT4 P224A, 120% with hsGLUT4 M112A, 107% in the test with hsGLUT4 F405A and 93% with hsGLUT4 S310A.

B1: AB101 (scFv)
scFv: ALTQPSSVSANPGETVKITCSGSSNSYGWYQQKSPGSAPVTVIYYNDKRPSDIPSRFSGSKSDSTHTLTITGVRAEDEAVYFCGSYDSTYVGIFGAGTTLTVLGQSSRSSGGGGSSGGGGSAVTLDESGGGLQTPGGTLSLVCKASGFTFSSNAMGWVRQAPGKGLEWVAGISSDGRYTKYGSAVKGRATISRDNGQSTVRLQLNNLRAEDTGTYFCAKAFGNNYRRIYAGQIDAWGHGTEVIVSS
notes: Chicken-derived clone used as a control; the four lead clones were tested as scFv-human IgG1 Fc; also called MAb AB101
Take B1: the “% of binding to wild type GLUT4” value was found to be 90% with hsGLUT4 P224A, 103% with hsGLUT4 M112A, 106% in the test with hsGLUT4 F405A and 101% with hsGLUT4 S310A.

B2: AB108 (Fc fusion)
scFv: ALTQPSSVSANLGGTVKITCSGSSGSYGWYQQKAPGSAPVTLIYRNDKRPSDIPSRFSGSESGSTGTLTITGVQAEDEAVYFCGGYDSSAGYAAFGAGTTLTVLGQSSRSSGGGGSSGGGGSAVTLDESGGGLQTPGGALSLVCKASGFTFSSHGMGWVRQAPGKGLEWVGSISTGRYTFYAPAVKGRATISRDNGQSTLRLQLNNLRAEDTGTYYCTKCAGLNGCGGGEIDAWGHGTEVIVSS
notes: Bivalent scFv-Fc; also called MAb AB108; not shown: Fc fragment of human IgG1, cloned in frame with the scFv
Consider B2, for which the “% of binding to wild type GLUT4” value in the test with hsGLUT4 P224A stood at 56%; in the test with hsGLUT4 M112A, 57%; with hsGLUT4 F405A, 103%; with hsGLUT4 S310A it was 97%.

B3: AB111 (Fc fusion)
scFv: ALTQPSSVSANPGETVKITCSGSGSWYGWFQQKSPGSAPVTVIYSNDKRPSDIPSRFSGSKSGSTSTLTITGVQVEDEAVYYCGNWDIFGAGTTLTVLGQSSRSSGGGGSSGGGGSAVTLDESGGGLQTPGGALSLVCKASGFTFSSHGMGWVRQAPGKGLEWVASISTGRYTFYAPAVKGRATISRDNGQSTVRLQLNNLRAEDTATYYCTKCAGLNGCGGGEIDAWGHGTEVIVSS
notes: Bivalent scFv-Fc; also called MAb AB111; not shown: Fc fragment of human IgG1, cloned in frame with the scFv
As for B3, the “% of binding to wild type GLUT4” value amounted to 108% with hsGLUT4 P224A, 79% with hsGLUT4 M112A, 118% in the test with hsGLUT4 F405A and 130% with hsGLUT4 S310A.

The values above are taken from US20210238276A1 (INTEGRAL MOLECULAR, published 2021).
